# In paper PMC2679210, “Dpr Acts as a Molecular Switch, Inhibiting Wnt Signaling when Unphosphorylated, but Promoting Wnt Signaling when Phosphorylated by Casein Kinase Iδ/ε” (PLoS ONE, 2009):
# T1: Myc-tagged XDpr1a phosphorylated by CKIδ (Xenopus, UniProt Q8QG92 1-824, phosphorylated by CKIδ; sites not told)
# T1 construct: Xenopus Dapper1a (XDpr1a), as m1; also called phosphorylated XDpr1a; XDpr1a in the presence of CKIδ
# T1 sequence (looked up): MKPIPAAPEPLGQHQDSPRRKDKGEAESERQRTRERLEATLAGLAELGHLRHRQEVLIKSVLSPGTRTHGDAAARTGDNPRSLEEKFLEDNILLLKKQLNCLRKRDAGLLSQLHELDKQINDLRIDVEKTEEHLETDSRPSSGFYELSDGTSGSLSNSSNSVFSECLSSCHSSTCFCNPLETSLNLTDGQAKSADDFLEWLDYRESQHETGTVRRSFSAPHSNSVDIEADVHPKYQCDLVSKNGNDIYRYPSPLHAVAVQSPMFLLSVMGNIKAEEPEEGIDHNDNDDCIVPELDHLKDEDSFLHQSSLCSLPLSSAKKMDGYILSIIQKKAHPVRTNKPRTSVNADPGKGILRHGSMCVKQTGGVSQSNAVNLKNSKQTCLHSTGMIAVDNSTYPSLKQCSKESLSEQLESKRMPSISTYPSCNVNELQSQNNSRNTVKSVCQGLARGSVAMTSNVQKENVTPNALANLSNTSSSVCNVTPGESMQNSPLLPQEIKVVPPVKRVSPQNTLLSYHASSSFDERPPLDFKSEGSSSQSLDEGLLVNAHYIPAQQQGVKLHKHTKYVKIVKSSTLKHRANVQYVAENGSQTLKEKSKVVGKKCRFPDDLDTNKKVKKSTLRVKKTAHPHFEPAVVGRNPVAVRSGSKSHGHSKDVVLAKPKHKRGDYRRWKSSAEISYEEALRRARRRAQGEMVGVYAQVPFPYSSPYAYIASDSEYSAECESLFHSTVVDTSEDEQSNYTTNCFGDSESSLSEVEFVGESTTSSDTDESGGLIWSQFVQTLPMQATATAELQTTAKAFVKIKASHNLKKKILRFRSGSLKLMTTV
# B1: HA-tagged XDsh phosphorylated by CKIδ (natural protein, Xenopus, UniProt P51142 1-736, looked up)
# chain: MAETKVIYHLDEEETPYLVKVPVPATDIRLRDFKAALGRGHAKYFFKAMDQDFGVVKEEISDDNAKLPCFNDRVVSWLASSEGSQPDSAPPAPATEVRPEPPPPVPPPIPPPPAERTSGIGDSRPPSFHPNVSGSTEQLDQDNESVISMRRDRVRRRESSEQAGVGRGVNGRTERHLSGYESSSTLLTSEIETSICDSEEDDTMSRFSSSTEQSSASRLLKRHRRRRKQRPPRLERTSSFSSVTDSTMSLNIITVTLNMEKYNFLGISIVGQSNERGDGGIYIGSIMKGGAVAADGRIEPGDMLLQVNDINFENMSNDDAVRVLRDIVHKPGPIVLTVAKCWDPSPQGYFTLPRNEPIHPIDPAAWVSHSAALSGSFPVYPGSASMSSMTSSTSVTETELSHALPPVSLFSLSVHTDLASVVKVMASPESGLEVRDRMWLKITIPNAFLGSDVVDWLYHHVEGFQDRREARKFASNLLKAGFIRHTVNKITFSEQCYYIFGDLTGCENYMTNLSLNDNDGSSGASDQDTLAPLPLPGASPWPLLPTFSYQYQAPHPYSTQPPAYHELSSYSYGMGSAGSQHSEGSRSSGSNRSDGGRGMQKDDRSGVAGVGGGDSKSGSGSESEYSTRSSIRRVGGGEAGPPSERSTSSRLPPHHPPSVHSYAAPGVPLSYNPMMLMMMPPPPLPPPGVCPPNSSVPPGAPPLVRDLASVPPELTATRQSFHMAMGNPSEFFVDVM
# modifications: phosphorylated by CKIδ; sites not told
# notes: Xenopus disheveled (XDsh), as m2; also called phosphorylated XDsh; XDsh in the presence of CKIδ
# Target: T1, Myc-tagged XDpr1a phosphorylated by CKIδ
# Experiment: co-IP; in vitro coimmunoprecipitation: [35S]methionine-labeled Myc:XDpr1a immunoprecipitated with anti-Myc antibodies and protein A agarose, 2 hours at room temperature, from a reaction containing HA-tagged XDsh in the absence or presence of CKIδ; washed three times with 50 mM Tris-HCl pH 7.4, 137 mM NaCl; SDS-PAGE, autoradiography, PhosphorImager quantitation (n = 4 trials)
# Settings: partners not purified
binder,measurement,value
B1,coimmunoprecipitation relative to the control without CKIδ,~0.5 relative to no CKIδ (1.0)
